Test results: PMC5556678 (Structure (London, England : 1993), 2017)
Where “and” joins values, the source holds several entries; their conditions need not be identical. Identical values can stand only once.

Key:
BanLec [1] = biological target: BanLec (UniProt Q8L5H4); experiment: SEC-MALS
BanLec [2] = biological target: BanLec (UniProt Q8L5H4); experiment: ion mobility MS
BanLec [3] = biological target: BanLec (UniProt Q8L5H4); experiment: native MS
BanLec [4] = biological target: BanLec (UniProt Q8L5H4); experiment: SAXS
BanLec D133G = experiment: native MS
BanLec Y46K = experiment: native MS
BanLec [5] = biological target: BanLec (Musa acuminata, UniProt O22321); experiment: HPLC depletion assay of released gp120; assay type: binding; conditions: 2-AB labelled gp120 N-glycans, 0-50 μM BanLec
BanLec D38G = experiment: native MS
BG505 SOSIP.664 = experiment: Negative-stain electron microscopy of BanLec with soluble Env trimer mimic; set-up: species or system HIV; conditions: incubation of BanLec with BG505 SOSIP.664
HIV fusion to HeLa cells = conditions: ref Swanson et al., 2010; cited from earlier work

**Q.** Which stoichiometry N (BanLec [1]) does the source give for “BanLec (from UniProt Q8L5H4 1-141) (natural protein)” here?
**A.** The stoichiometry N was 4.

**Q.** And the stoichiometry N (BanLec [2])?
**A.** Its stoichiometry N is 4.

**Q.** What about the stoichiometry N (BanLec [3]) of the same molecule?
**A.** The stoichiometry N was 4.

**Q.** And the stoichiometry N (BanLec [4])?
**A.** The stoichiometry N was 4.

**Q.** With BanLec D133G (natural protein) as the molecule, how does the stoichiometry N (BanLec D133G) read?
**A.** Its stoichiometry N is 4.

**Q.** For BanLec Y46K (natural protein), which stoichiometry N (BanLec Y46K) is on record?
**A.** The stoichiometry N was 2 and 4.

**Q.** With CC(=O)N[C@H]1[C@H](O[C@H]2[C@H](O)[C@@H](NC(C)=O)C(O)O[C@@H]2CO)O[C@H](CO)[C@@H](O[C@@H]2O[C@H](CO[C@H]3O[C@H](CO[C@H]4O[C@H](CO)[C@@H](O)[C@H](O)[C@@H]4O[C@H]4O[C@H](CO)[C@@H](O)[C@H](O)[C@@H]4O)[C@@H](O)[C@H](O[C@H]4O[C@H](CO)[C@@H](O)[C@H](O)[C@@H]4O[C@H]4O[C@H](CO)[C@@H](O)[C@H](O)[C@@H]4O)[C@@H]3O)[C@@H](O)[C@H](O[C@H]3O[C@H](CO)[C@@H](O)[C@H](O)[C@@H]3O[C@H]3O[C@H](CO)[C@@H](O)[C@H](O)[C@@H]3O[C@H]3O[C@H](CO)[C@@H](O)[C@H](O)[C@@H]3O)[C@@H]2O)[C@@H]1O (some centres unmarked) [Man9] as the molecule, how does the “depletion of glycan upon addition of BanLec” value (BanLec [5]) read?
**A.** The value was “decreased considerably”.

**Q.** For BanLec D38G (natural protein), which stoichiometry N (BanLec D38G) is on record?
**A.** The stoichiometry N was 4.

**Q.** With Man5 as the molecule, how does the “depletion of glycan upon addition of BanLec” value (BanLec [5]) read?
**A.** Its value is “not depleted”.

B1: BanLec: recombinant tetrameric plant (banana) lectin with anti-HIV activity, expressed in E. coli (protein)
chain: MNGAIKVGAWGGNGGSAFDMGPAYRIISVKIFSGDVVDAVDVTFTYYGKTETRHFGGSGGTPHEIVLQEGEYLVGMKGEFGNYHGVVVVGKLGFSTNKKSYGPFGNTGGTPFSLPIAAGKISGFFGRGGDFIDAIGVYLEP
modifications: left off: polyhistidine tag, N-terminal, cleaved
**Q.** What does the source list for B1?
**A.** effect on soluble Env trimer mimic by negative-stain EM (BG505 SOSIP.664): aggregation; IC50, inhibition of HIV fusion to HeLa cells (HIV fusion to HeLa cells): low-nanomolar range
